Measurements reported in paper PMC8864007, “Evaluation of an ^131I-labeled HER2-specific single domain antibody fragment for the radiopharmaceutical therapy of HER2-expressing cancers” (Scientific Reports, 2022).
“And” between values parts separate entries of the source, which are not always exact repeats. Equal entries are not always repeated.

How the values were obtained:
HER2-Fc protein = target: T1, HER2-Fc protein (Homo sapiens, UniProt P04626); test: SPR; Biacore 3000 System; binding to HER2-Fc protein; which partner was immobilised is not stated; settings: both partners purified
T1 construct: human epidermal growth factor receptor type 2 (HER2), fused to Fc; Probably the extracellular domain of HER2; The source may stand in Supplementary Methods

murine HER2 = target: T2, murine HER2 (Mus musculus, UniProt P70424); test: ELISA; affinity, specificity and species cross-reactivity by ELISA; details in Supplementary Materials
T2 construct: murine HER2
T2 sequence (P70424 23-1256): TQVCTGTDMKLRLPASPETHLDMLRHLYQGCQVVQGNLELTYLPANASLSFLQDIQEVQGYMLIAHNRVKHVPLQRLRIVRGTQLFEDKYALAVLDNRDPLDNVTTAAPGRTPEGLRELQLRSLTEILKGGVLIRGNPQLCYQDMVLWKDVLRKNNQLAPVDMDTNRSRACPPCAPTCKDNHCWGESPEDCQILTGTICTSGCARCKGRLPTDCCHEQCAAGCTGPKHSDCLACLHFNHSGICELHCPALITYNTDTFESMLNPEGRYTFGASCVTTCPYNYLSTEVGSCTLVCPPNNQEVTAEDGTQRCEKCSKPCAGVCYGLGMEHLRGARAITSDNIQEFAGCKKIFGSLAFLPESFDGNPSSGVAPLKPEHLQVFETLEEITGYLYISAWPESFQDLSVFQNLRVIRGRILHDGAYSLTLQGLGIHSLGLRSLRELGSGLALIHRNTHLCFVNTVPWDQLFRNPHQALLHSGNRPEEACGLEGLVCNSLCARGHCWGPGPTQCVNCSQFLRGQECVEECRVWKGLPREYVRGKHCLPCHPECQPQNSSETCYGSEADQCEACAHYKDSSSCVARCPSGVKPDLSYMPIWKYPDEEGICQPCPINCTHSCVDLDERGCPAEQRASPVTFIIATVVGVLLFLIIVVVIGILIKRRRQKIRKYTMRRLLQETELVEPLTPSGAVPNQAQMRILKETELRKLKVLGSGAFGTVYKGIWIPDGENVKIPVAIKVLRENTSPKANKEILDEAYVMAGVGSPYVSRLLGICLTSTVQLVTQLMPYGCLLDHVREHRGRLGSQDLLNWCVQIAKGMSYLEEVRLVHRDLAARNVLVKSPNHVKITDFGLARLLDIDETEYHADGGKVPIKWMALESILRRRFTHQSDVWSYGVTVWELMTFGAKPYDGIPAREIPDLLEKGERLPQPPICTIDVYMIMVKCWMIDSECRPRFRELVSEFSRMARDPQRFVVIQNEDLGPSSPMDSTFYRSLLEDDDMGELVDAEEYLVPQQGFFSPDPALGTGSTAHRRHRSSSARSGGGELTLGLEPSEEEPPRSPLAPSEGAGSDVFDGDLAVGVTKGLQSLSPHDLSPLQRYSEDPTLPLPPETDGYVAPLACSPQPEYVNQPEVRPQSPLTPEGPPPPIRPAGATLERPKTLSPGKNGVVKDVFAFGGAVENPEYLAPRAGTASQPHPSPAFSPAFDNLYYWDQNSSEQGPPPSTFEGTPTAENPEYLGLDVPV

[1] = target: T3, human epidermal growth factor receptor type 2 (HER2) on HER2-expressing carcinoma cells (Homo sapiens, endogenous on SKOV-3 cells, UniProt P04626); test: radioligand binding; cell-based affinity assay on HER2-expressing SKOV-3 cells; nonspecific binding measured with a 100-fold molar excess of trastuzumab; three therapy-level batches; settings: one partner purified
T3 construct: human epidermal growth factor receptor type 2 (HER2), endogenous on SKOV-3 and BT474 cells; The assay tells which cell line was used; also called HER2 receptor; source: endogenous, on SKOV-3 human ovarian carcinoma cells and on BT474 human breast carcinoma cells

B1: VHH_1028 (VHH)
VHH: EVQLVESGGGLVQAGGSLRLSCAASGITFSINTMGWYRQAPGKQRELVALISSIGDTYYADSVRGRFTISRDNAKNTVYLQMNSLKPEDTAVYYCKRFRTAAQGTDYWGQGTQVTVSS
notes: Measured mass 12,844.0 Da (theoretical 12,844.2 Da); Engineered to have no lysine in its CDR regions; also called anti-HER2 VHH_1028; sdAb VHH_1028; source: developed and provided by Cereius, Inc; production and purification in Supplementary Materials
With B1 the Kd (HER2-Fc protein) was 0.21 nM and the binding result (murine HER2) was “no binding”.

B2: iso-SGMIB-VHH_1028 (VHH)
VHH: B1 VHH
notes: as the chain of m1; Measured mass 13,147.6 Da (calculated 13,146.4 Da); also called unlabeled iso-SGMIB-VHH_1028; 1:1 iso-SGMIB-VHH_1028 conjugate; source: VHH_1028 reacted with iso-SGMIB, 1:1 conjugate isolated by HIC-HPLC
A Kd (HER2-Fc protein) of 0.21 nM was found for B2 in this work.

B3: iso-[^131I]SGMIB-VHH_1028 (VHH)
VHH: B1 VHH
notes: as the chain of m1; source: VHH_1028 conjugated with iso-[^131I]SGMIB, isolated by gel filtration (PD-10)
B3 was tested, and the Kd [1] was 1.5 nM and 2.9 nM and 2.6 nM.
